Laboratory results published in patent US20240287172A1 (SCIRHOM, published 2024).

T1: hiR2-FL-K536-T7 (deletion of K536) (human, UniProt Q6PJF5 1-856)
T1 construct: single amino acid deletion
T1 sequence: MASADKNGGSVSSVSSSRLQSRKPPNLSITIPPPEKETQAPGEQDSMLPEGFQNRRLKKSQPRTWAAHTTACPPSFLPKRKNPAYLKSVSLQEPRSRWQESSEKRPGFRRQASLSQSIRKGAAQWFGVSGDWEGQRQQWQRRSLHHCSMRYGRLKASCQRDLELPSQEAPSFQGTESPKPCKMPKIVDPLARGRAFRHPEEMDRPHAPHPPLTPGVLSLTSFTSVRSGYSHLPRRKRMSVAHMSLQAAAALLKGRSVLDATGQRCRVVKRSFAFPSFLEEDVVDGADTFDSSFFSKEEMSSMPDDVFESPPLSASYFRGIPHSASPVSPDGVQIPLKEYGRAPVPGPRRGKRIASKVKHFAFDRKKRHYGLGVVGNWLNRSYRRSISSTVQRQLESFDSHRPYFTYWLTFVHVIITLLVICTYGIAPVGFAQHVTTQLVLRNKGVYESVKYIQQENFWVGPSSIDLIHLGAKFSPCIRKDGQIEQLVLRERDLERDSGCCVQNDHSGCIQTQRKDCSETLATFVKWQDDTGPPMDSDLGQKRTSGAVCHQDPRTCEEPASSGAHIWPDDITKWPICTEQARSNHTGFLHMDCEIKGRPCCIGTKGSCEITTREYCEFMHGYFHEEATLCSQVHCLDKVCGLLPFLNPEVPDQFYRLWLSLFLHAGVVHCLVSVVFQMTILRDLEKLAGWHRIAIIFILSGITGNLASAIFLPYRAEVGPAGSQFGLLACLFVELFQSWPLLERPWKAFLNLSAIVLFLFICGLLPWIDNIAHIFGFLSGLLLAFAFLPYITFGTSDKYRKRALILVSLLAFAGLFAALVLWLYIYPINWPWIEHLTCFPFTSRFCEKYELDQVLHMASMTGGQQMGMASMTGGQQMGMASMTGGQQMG


Target: T1, hiR2-FL-K536-T7 (deletion of K536)
Experiment: FACS, MEF-DKO cells, 3 µg/ml
Source text: In brief, immortalized MEF-DKO-hiR2-FL-G498A-T7, MEF-DKO-hiR2-FL-Q502R-T7, MEF-DKO-hiR2-FL-I509V-T7, MEF-DKO-hiR2-FL-Q512S-T7, MEF-DKO-hiR2-FL-R513E-T7, MEF-DKO-hiR2-FL-K514E-T7, MEF-DKO-hiR2-FL-D515E-T7, MEF-DKO-hiR2-FL-E518S-T7, MEF-DKO-hiR2-FL-T522V-T7, MEF-DKO-hiR2-FL-F523W-T7, MEF-DKO-hiR2-FL-Q527P-T7, MEF-DKO-hiR2-FL-D528I-T7, MEF-DKO-hiR2-FL-D529H-T7, MEF-DKO-hiR2-FL-T530P-T7, MEF-DKO-hiR2-FL-G531S-T7, MEF-DKO-hiR2-FL-P532A-T7, MEF-DKO-hiR2-FL-M534-T7, MEF-DKO-hiR2-FL-D535-T7, MEF-DKO-hiR2-FL-K536-T7, MEF-DKO-hiR2-FL-S537E-T7, MEF-DKO-hiR2-FL-D538L-T7, MEF-DKO-hiR2-FL-L539A-T7, MEF-DKO-hiR2-FL-Q541H-T7, MEF-DKO-hiR2-FL-T544Q-T7, MEF-DKO-hiR2-FL-S545F-T7, MEF-DKO-hiR2-FL-A547S-T7, MEF-DKO-hiR2-FL-T555V-T7, MEF-DKO-hiR2-FL-E557D-T7, MEF-DKO-hiR2-FL-A560S-T7 and MEF-DKO-hiR2-FL-S562E-T7 cells were harvested with 10 mM EDTA in PBS, washed and resuspended in FACS buffer (PBS, 3% FBS, 0.05% sodium azide), and seeded in Nunc U-bottom 96-well plates (Thermo Fisher Scientific, USA) at approximately 3×10⁵ cells per well. To pellet cells and remove supernatants, the plates were centrifuged at 1,500 rpm and 4° C. for 3 minutes. For primary staining, cells were resuspended in 100 μl per well of either FACS buffer alone (controls) or the purified antibodies 3, 5, 16, 22, 34, 42, 43, 44, 48, and 50 of the invention at 3 μg/ml in FACS buffer and incubated on ice for 1 hour. Afterwards, plates were centrifuged at 1,500 rpm and 4° C. for 3 minutes and washed twice with 200 μl per well of FACS buffer. For secondary staining, cells were spun down and resuspended in 100 μl per well of PE-conjugated goat anti-mouse IgG F(ab′)2 detection fragment (Dianova, Germany) diluted 1:100 in FACS buffer. Protected from light, the cell suspensions were incubated on ice for 1 hour. Plates were then centrifuged at 1,500 rpm and 4° C. for 3 minutes and washed three times with 200 μl per well of FACS buffer. Finally, cells were resuspended in 150 μl per well of FACS buffer and analyzed using a BD Accuri™ C6 Plus flow cytometer (Becton Dickinson, Germany).

Row | Binder | loss of binding vs wild type
1 | antibody 16 (antibody, V domains shown, mouse IgG, kappa light chain; also called clone #16; purified antibody 16) VH: QVTLKESGPGILQPSQTLSLTCSFSGFSLSTFALGVGWIRQPSGRGLEWLAHIWWDDDKYYNPALKSRLTISKDTSKNHVFLKIANVDTADTATYYCARITTYYYGMDYWGQGTSVTVSS VL: DIVLSQSPATLSVTPGDSVSLFCRASQSIGNHLHWYQQESHASPRLLIKYASQSISGIPSRFSGSGSGTDFTLSINSVETEDFGMYFCQQSYNWPLTFGAGTKLELK | ≥ 95%
2 | antibody 3 (antibody, V domains shown, mouse IgG, kappa light chain; also called clone #3; purified antibody 3) VH: QVTLKESGPGILQPSQTLSLTCSFSGFSLTTFAMGIGWVRQPSGKGLEWLAHIWWDGEKYNNPVLKSRLTISKDTSKNQVFLRIANVDTPDTATYYCARISSIYYIIDNWGQGTSVTVSS VL: DIVLTQSPATLSVTPGHSVSLSCRASQSISNNLHWYQKKSHESPRLLIKYVSQSISGIPSRFSGSGSGTDFTLSINSVETEDFGMYFCQQSYNWPLTFGAGTKLELK | ≥ 95%
3 | antibody 34 (antibody, V domains shown, mouse IgG, kappa light chain; also called clone #34; purified antibody 34) VH: QVTLKESGPGILQPSQTLSLTCSFSGFSLSTFSLGVGWIRQSSGKGLEWLAHIWWDDEKYYNPALKSRLTISKDTSKNQVFLKIANVDAADTATYYCARAYYSKSYYALDYWGQGTSVTVSS VL: DIQMTQSPSSLSASLGERVSLTCRASQEISGYLSWLQQKPDGTIKRLIYAASTLDSGVPKRFSGSRSGSDYSLAISSLESEDFADYYCLQYANFPFTFGSGTKLEIK | ≥ 95%
4 | antibody 5 (antibody, V domains shown, mouse IgG, kappa light chain; also called clone #5; purified antibody 5) VH: QVTLKESGPGILQPSQTLSLTCSFSGFSLSTFGMGVGWIRQPSGKGLEWLAHIWWDDEKYYNSALKSRLTISKATSKNQAFLKIANVDTADTATYYCARISNYGSNYWYFNVWGTGTTVTVSS VL: QVVLTQSPALMSASPGEKVTMTCSAGSSVSCMYWYQQKPGSSPRVLIYDTSNLASGVPARFTGSGSGTSYSLTISRMEAEDAASYYCQQWNSYPLTFGAGTKLELK | ≥ 95%
5 | antibody 44 (antibody, V domains shown, mouse IgG, kappa light chain; also called clone #44; purified antibody 44) VH: QVTLKESGPGILQPSQTLSLTCSFSGFSLSTFGMGVGWIRQPSEKGLEWLAHIWWDDDKYYNPALKSRLTISKDTSKNQIFLKITNVDTAETATYYCSRIGNYGSNYWYFDVWGTGTTVTVSS VL: QIVLTQSPAVMSASPGEKVTMTCTASSSVYYMYWYQQTPGSSPRLLIYDTSNLASGVPVRFSGSGSGTSYSLTISRMEAEDAATYYCQQWNTYPLTFGAGTKLELK | ≥ 95%
6 | antibody 43 (antibody, V domains shown, mouse IgG, kappa light chain; also called clone #43; purified antibody 43) VH: QVALKESGPGILQPSQTLSLTCSFSGFSLSTFGMGVGWIRQSSGKGLEWLANIWWDDDKYYNPALKSRLTISKDASKNQAFLKIANVDTADTATYYCARIGNYGSNYWYFDVWGTGTTVTVSS VL: QIVLTQSPAIMSASPGERVTMTCSANSRISYMYWYQQKPGSSPRLLIYDTSNLASGVPVRFSGSGSGTSYSLTISRMEAEDAATYNCQQWSSYPLTFGAGTKLELK | ≥ 95%
7 | antibody 42 (antibody, V domains shown, mouse IgG, kappa light chain; also called clone #42; purified antibody 42) VH: QVTLKESGPGILQPSQTLSLTCSLSGFSLSTFGRGVGWIRQPSGKGLEWLAHIWWDDEKYYNPALKSRLTISKDTSKNQVFLRIANVDTADTATYYCARIQNYGSNYWYFDVWGTGTTVTVSS VL: LIVLTQSPAIMSASPGEKVTMTCGATSRISYMFWYQQKPGSSPRVLIYDTSNLASGVPVRFSGSGSGTSYSLTISRVEAEDVATYYCQQWNSYPLTFGAGTKLELK | ≥ 95%
8 | antibody 22 (antibody, V domains shown, mouse IgG, kappa light chain; also called clone #22; purified antibody 22) VH: QVTLKESGPGILQPSQTLSLTCSFSGFSLSTFGMGVGWIRQPSGKGLEWLAHIWWDDEKYYNSALKSRLTISKATSKNQVFLKIANVDTADTATYYCARISNYGSNYWYFNVWGTGTTVTVSS VL: QVVLTQSPALMSASPGEKVTMTCSAGSSVSYMYWYQQKPGSSPRVLIYDTSNLASGVPARFTGSGSGTSYSLTISRMEAEDAATYYCQQWNSYPLTFGAGTKLELK | ≥ 95%
